Measured values as given in patent publication US20250297004A1, “NECTIN-4 BINDING AGENTS” (INNATE PHARMA, priority 2022, published 2025).

T1: human Nectin-4 expressed on cells (human, UniProt Q96NY8 32-510)
T1 construct: On SUM190, SUM185, MDA-MB-468 cells (endogenous) or transfected cells; 31-residue signal peptide left out; also called huN4; wild-type human Nectin-4
T1 sequence: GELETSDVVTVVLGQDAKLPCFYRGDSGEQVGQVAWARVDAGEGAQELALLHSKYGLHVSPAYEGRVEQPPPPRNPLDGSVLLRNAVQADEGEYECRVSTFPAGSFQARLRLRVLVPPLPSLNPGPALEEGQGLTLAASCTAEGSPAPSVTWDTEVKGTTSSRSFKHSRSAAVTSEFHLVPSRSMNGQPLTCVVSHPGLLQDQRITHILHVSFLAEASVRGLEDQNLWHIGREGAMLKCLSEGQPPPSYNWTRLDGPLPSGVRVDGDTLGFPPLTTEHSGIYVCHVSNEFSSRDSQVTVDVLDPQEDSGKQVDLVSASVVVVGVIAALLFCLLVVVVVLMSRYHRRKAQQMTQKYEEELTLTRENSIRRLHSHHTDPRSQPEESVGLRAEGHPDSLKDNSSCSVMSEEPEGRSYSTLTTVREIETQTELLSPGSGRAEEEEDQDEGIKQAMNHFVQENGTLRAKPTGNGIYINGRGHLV

T2: human Nectin-4 (Homo sapiens, UniProt Q96NY8)
T2 sequence (Q96NY8 32-510): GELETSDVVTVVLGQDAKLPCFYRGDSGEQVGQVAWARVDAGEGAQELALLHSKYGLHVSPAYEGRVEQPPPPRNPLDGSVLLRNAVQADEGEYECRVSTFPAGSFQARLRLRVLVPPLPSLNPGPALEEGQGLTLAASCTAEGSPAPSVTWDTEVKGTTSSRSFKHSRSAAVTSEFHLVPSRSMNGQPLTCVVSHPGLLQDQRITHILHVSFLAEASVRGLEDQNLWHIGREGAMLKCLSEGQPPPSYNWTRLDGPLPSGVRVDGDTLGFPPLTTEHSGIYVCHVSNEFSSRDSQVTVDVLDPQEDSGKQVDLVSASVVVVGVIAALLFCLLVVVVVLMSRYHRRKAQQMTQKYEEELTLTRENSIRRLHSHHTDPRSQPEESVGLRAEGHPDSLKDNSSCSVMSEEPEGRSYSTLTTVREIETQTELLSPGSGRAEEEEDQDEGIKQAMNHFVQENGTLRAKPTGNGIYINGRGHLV


Tests used:
[1] = molecular target: human Nectin-4 (protein used in the SPR affinity measurements) (human) (UniProt Q96NY8); experiment: SPR, human IgG1
[2] = molecular target: T1, human Nectin-4 expressed on cells; experiment: flow cytometry on SUM190 cells, MedFI at saturation
Description: The humanized antibodies in Table 3 of Example 3 and in Table 6 of Example 5 were cloned, produced and purified, then tested for binding to Nectin-4 expressing cells by flow cytometry. Binding of humanized variants in human IgG1 format was determined on the SUM190 cell line expressing high levels of Nectin-4.

[3] = molecular target: T1, human Nectin-4 expressed on cells; experiment: cell-based or functional assay
[4] = molecular target: T1, human Nectin-4 expressed on cells; experiment: cell-based or functional assay; remark: listed apart in the source
[5] = molecular target: T2, human Nectin-4; experiment: Binding to human Nectin-4 by SPR; details: second set (Table 7); for ka: SPR association constant; for kd: SPR dissociation constant; for Kd: SPR, human IgG1 isotype antibodies
Description: (§1) The antibodies in Table 3 of Example 3 were cloned as human IgG1 isotype antibodies, produced and purified, then tested for binding to human Nectin-4. Affinity of the 16 humanized variants, as well as their association and dissociation constants were assessed by SPR analysis. Table 4 summarizes all the calculated constants (Affinity constant KD (nM), association constant ka (1/Ms) and dissociation constant kd (1/s)).
as §1, with “Table 6” for “Table 3”, “Example 5” for “Example 3”, “Table 7” for “Table 4”

Row | Kd [1] [nM] | koff [1] [s⁻¹] | kon [1] [M⁻¹ s⁻¹] | Max MedFi [2] [MedFI] | internalization efficiency on SUM190, normalized to chimeric parental antibody (Fab-ZAP, CTG), experiment 1 [3] | internalization efficiency on SUM190, normalized to chimeric parental antibody (Fab-ZAP, CTG), experiment 2 [3] | internalization efficiency on MDA-MB-468, normalized to chimeric parental antibody (Fab-ZAP, CTG), first column [4] | internalization efficiency on MDA-MB-468, normalized to chimeric parental antibody (Fab-ZAP, CTG), second column [4] | ka [5] [M⁻¹ s⁻¹] | kd [5] [s⁻¹] | Kd [5] [nM] | Molecule
1 | 23.8 | 0.0053 | 220000 | 25300 | 81.3 % of chimeric parental | 86 % of chimeric parental | 39.4 % of chimeric parental | 39.4 % of chimeric parental | 220000 | 0.0053 | 23.8 | H5L2 (antibody, human IgG1, V domains shown, human IgG1 isotype) VH: QVQLVQSGAEVKKPGASVKVSCKASGYIFTSYWMHWVKQRPGQGLEWMGEIDPSDSYTNYNQKFKGRVTMTLDKSTSTTYMELSSLRSEDTAVYYCARGYGNYGDYWGQGTLVTVSS VL: DVVMTQSPLSNPVTPGEPASISCRSSKSLLHSNGITYLYWYLQKPGQSPQLLIYQMSNLASGVPDRFSSSGSGTDFTLKISRVEAEDVGVYYCAQNLELPWTFGGGTKVEIK
2 | 41.3 | 0.0058 | 140000 | 24800 | 69.7 % of chimeric parental | 63.5 % of chimeric parental | 58.5 % of chimeric parental | 58.5 % of chimeric parental | 140000 | 0.0058 | 41.3 | H6L2 (antibody, human IgG1, V domains shown, human IgG1 isotype) VH: QVQLVQSGAEVKKPGASVKVSCKASGYIFTSYWMHWVKQRPGQGLEWIGEIDPSDSYTNYNQKFKGRVTMTLDKSTSTTYMELSSLRSEDTAVYYCARGYGNYGDYWGQGTLVTVSS VL: DVVMTQSPLSNPVTPGEPASISCRSSKSLLHSNGITYLYWYLQKPGQSPQLLIYQMSNLASGVPDRFSSSGSGTDFTLKISRVEAEDVGVYYCAQNLELPWTFGGGTKVEIK
3 | 32.1 | 0.0062 | 190000 | 18300 | 71.3 % of chimeric parental | 54.5 % of chimeric parental | 61.6 % of chimeric parental | 61.6 % of chimeric parental | 190000 | 0.0062 | 32.1 | H6L1 (antibody, human IgG1, V domains shown, human IgG1 isotype) VH: QVQLVQSGAEVKKPGASVKVSCKASGYIFTSYWMHWVKQRPGQGLEWIGEIDPSDSYTNYNQKFKGRVTMTLDKSTSTTYMELSSLRSEDTAVYYCARGYGNYGDYWGQGTLVTVSS VL: DVVMTQSPLSLPVTPGEPASISCRSSKSLLHSNGITYLYWYLQKPGQSPQLLIYQMSNLASGVPDRFSSSGSGTDFTLKISRVEAEDVGVYYCAQNLELPWTFGGGTKVEIK
4 | 38.6 | 0.0051 | 130000 | 24800 | 78.7 % of chimeric parental | 92.8 % of chimeric parental | 66.3 % of chimeric parental | 66.3 % of chimeric parental | 130000 | 0.0051 | 38.6 | H6L3 (antibody, human IgG1, V domains shown, human IgG1 isotype) VH: QVQLVQSGAEVKKPGASVKVSCKASGYIFTSYWMHWVKQRPGQGLEWIGEIDPSDSYTNYNQKFKGRVTMTLDKSTSTTYMELSSLRSEDTAVYYCARGYGNYGDYWGQGTLVTVSS VL: DVVMTQSALSNPVTPGEPASISCRSSKSLLHSNGITYLYWYLQKPGQSPQLLIYQMSNLASGVPDRFSSSGSGTDFTLKISRVEAEDVGVYYCAQNLELPWTFGGGTKVEIK
